Assay results taken from paper PMC5240567, “New Insights into Cooperative Binding of Homeodomain Transcription Factors PREP1 and PBX1 to DNA”.

Tests used:
HOXB1HD;PBX1HD [1] = target: T1, HOXB1HD;PBX1HD (;, UniProt P14653;P40424 171-266;227-317, |); assay: fluorescence polarization; HOXB1HD titrated into preformed PBX1HD:control; FP and EMSA: 20 mM Na/K phosphate pH 7.2, 150 mM NaCl, 5% glycerol, 1 mM TCEP, room temperature (FP 9 nM DNA, 30 min; EMSA gel run at 4 C in 0.5x TBE); NMR: 20; settings: protein: recombinant;recombinant; tags: GST cleaved (pGEX-6P);GST cleaved (pGEX-6P); copies: 1;1; label: 5' 6-FAM (FP); unlabeled in EMSA
HOXB1HD;PBX1HD [2] = target: T1, HOXB1HD;PBX1HD; assay: fluorescence polarization; HOXB1HD titrated into preformed PBX1HD:PH; FP and EMSA: 20 mM Na/K phosphate pH 7.2, 150 mM NaCl, 5% glycerol, 1 mM TCEP, room temperature (FP 9 nM DNA, 30 min; EMSA gel run at 4 C in 0.5x TBE); NMR: 20; settings: protein: recombinant;recombinant; tags: GST cleaved (pGEX-6P);GST cleaved (pGEX-6P); copies: 1;1; label: 5' 6-FAM (FP); unlabeled in EMSA
HOXB1HD;PBX1HD [3] = target: T1, HOXB1HD;PBX1HD; assay: fluorescence polarization; HOXB1HD titrated into preformed PBX1HD:PMH; FP and EMSA: 20 mM Na/K phosphate pH 7.2, 150 mM NaCl, 5% glycerol, 1 mM TCEP, room temperature (FP 9 nM DNA, 30 min; EMSA gel run at 4 C in 0.5x TBE); NMR: 20; settings: protein: recombinant;recombinant; tags: GST cleaved (pGEX-6P);GST cleaved (pGEX-6P); copies: 1;1; label: 5' 6-FAM (FP); unlabeled in EMSA and NMR
PREP1HD KKKK->AAAA = target: T2, PREP1HD KKKK->AAAA (UniProt P55347 240-344, K331A;K333A;K334A;K335A); assay: fluorescence polarization; FP and EMSA: 20 mM Na/K phosphate pH 7.2, 150 mM NaCl, 5% glycerol, 1 mM TCEP, room temperature (FP 9 nM DNA, 30 min; EMSA gel run at 4 C in 0.5x TBE); NMR: 20; settings: protein: recombinant; tags: GST cleaved (pGEX-6P); label: 5' 6-FAM (FP); unlabeled in EMSA and NMR
T2 sequence: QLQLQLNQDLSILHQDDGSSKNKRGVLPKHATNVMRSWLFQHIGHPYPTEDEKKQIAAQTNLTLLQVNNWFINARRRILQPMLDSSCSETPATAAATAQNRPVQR

PREP1hd;PBX1HD [4] = target: T3, PREP1hd;PBX1HD (;, UniProt P55347;P40424 257-325;227-317, |); assay: fluorescence polarization; PREP1hd titrated into preformed PBX1HD (0.3 uM):PMH; FP and EMSA: 20 mM Na/K phosphate pH 7.2, 150 mM NaCl, 5% glycerol, 1 mM TCEP, room temperature (FP 9 nM DNA, 30 min; EMSA gel run at 4 C in 0.5x TBE); NMR: 20; settings: protein: recombinant;recombinant; tags: GST cleaved (pGEX-6P);GST cleaved (pGEX-6P); copies: 1;1; label: 5' 6-FAM (FP); unlabeled in EMSA and NMR
T3 sequence 1: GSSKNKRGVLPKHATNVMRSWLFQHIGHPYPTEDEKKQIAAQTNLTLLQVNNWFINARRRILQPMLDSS
T3 sequence 2: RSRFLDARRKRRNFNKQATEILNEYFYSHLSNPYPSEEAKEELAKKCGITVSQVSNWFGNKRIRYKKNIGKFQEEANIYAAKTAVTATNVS

PREP1HD;PBX1HD [5] = target: T4, PREP1HD;PBX1HD (;, UniProt P55347;P40424 240-344;227-317, |); assay: fluorescence polarization; PREP1HD titrated into preformed PBX1HD (0.3 uM):PMH; FP and EMSA: 20 mM Na/K phosphate pH 7.2, 150 mM NaCl, 5% glycerol, 1 mM TCEP, room temperature (FP 9 nM DNA, 30 min; EMSA gel run at 4 C in 0.5x TBE); NMR: 20; settings: protein: recombinant;recombinant; tags: GST cleaved (pGEX-6P);GST cleaved (pGEX-6P); copies: 1;1; label: 5' 6-FAM (FP); unlabeled in EMSA and NMR
T4 sequence 1: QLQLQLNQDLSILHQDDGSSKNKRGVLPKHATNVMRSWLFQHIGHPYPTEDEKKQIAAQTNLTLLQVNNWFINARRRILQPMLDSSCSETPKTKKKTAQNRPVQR
T4 sequence 2: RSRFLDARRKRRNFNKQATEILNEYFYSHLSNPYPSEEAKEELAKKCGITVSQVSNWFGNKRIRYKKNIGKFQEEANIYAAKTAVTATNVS

T1 sequence (P14653 171-266, chain 1 of 2, one chain of several): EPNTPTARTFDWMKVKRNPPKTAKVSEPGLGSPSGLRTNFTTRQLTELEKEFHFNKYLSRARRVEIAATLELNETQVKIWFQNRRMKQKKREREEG

B1: Control (dsDNA)
DNA 1: AGGATAACCTGGGATT
DNA 2: AATCCCAGGTTATCCT
Kd (HOXB1HD;PBX1HD [1]): 34.7 ± 1.7 µM

B2: PH (dsDNA)
DNA 1: AGAGTGATTGATAAGG
DNA 2: CCTTATCAATCACTCT
Kd (HOXB1HD;PBX1HD [2]): 0.39 ± 0.1 µM

B3: PMH (dsDNA)
DNA 1: AGTGATTGACAGATTC
DNA 2: GAATCTGTCAATCACT
Kd (HOXB1HD;PBX1HD [3]): 1.3 ± 0.3 µM | Kd (PREP1HD KKKK->AAAA): 21.8 ± 0.8 µM | Kd (PREP1hd;PBX1HD [4]): 5.1 ± 1.8 µM | Kd (PREP1HD;PBX1HD [5]): 1.9 ± 0.5 µM
